Laboratory results reported in the DeepSol protein solubility set.

assay: soluble on expression in E. coli; label from the status in PepcDB or PDB records

Sequence | soluble on expression in E. coli
VLTDIQIAQSCKMKPITQVAAELGIDEEELELYGKYKAKLSDKLWERVKDRPDGKLVLVTAINPTPAGEGKTTTTVGLGQAMARIGKKAVIALREPSLGPVMGIKGGAAGGGYSQVVPMEDINLHFTGDMHAITAANNLLSAAIDNHIQQGNELNIDVRQIIWKRAMDMNDRALRNIVVGLGGKANGVPREDGFQITVASEVMAVLCLSTGLMDLKERLGRILIGYTYDGKPVFAKDLKVNGAMALLLKDAIKPNLVQTLENTPAIVHGGPFANIAHGCNSIVATRLGLKLADYCITEAGFGADLGAEKFFNIKCRYAGLKPDLVVLVATIRALKYNGGVKKENLGIENLPALEKGFVNLEKHIENIRKFQVPLLVAINHFDTDSEAEIEYVKNRCKALNVEVAFSDVFSKGSEGGIELAEKVVKLTETQKSNFKPLYDVNLSIREKIEIIAREIYGADSVNILPAAERAIKKIEELKMDKLPICVAKTQYSLSDDPTLLGRPQGFVITVREIKLSSGAGFIVAITGDIMTMPGLPKVPAAEKIDIDENGVITGLF | soluble
MGSDKIHHHHHHMTSIVFNGSYITKKNTGVGVVSKDLLYSLSANKITTLIPKDLDIKGDIYIPNNLSPGTGLKSHFRRLYWLQNSVPKLMNNLNAEYFLSPLLEAPLFSNIKSIVLAHDLIPIRYPSVSFLTLYYLIYIPLILKQSKLILCNSVSTANDLHRFYKVPMHKLFPIKLGFNNKKYYPIKKIRKKFFLIIGRHNPHKNLRRVIKAFAYSKINDYKLIFVGPFDKRHTPSLLKLIDKHNIRHLCVWKGWIDDDEKLSLLNECHALIIASLWEGFGLPALEAMACGTPVIASDRGALREVMGNYGYFINPFNIQSIACAMNAVINDKKCFENALQEGPSRAESFNWLDTARTIEKIIQEID | not soluble
LGFLPKEKKDKIKRFIKYEDALMSLTAEILIRAVVCSKLGIKNESVKFNRTTYGKPYLEGYDDFHFNLSHSGSWVVCAVSSKPVGIDIEKIREVDLDIAKRFFSKEEASDLFAKEDNEKTEYFFELWTLKESYIKADGRGLSLPLNSFFFRIENDNVIFVSESEKKKFFFKRYDIDKGYKLAVCSMESHFPEDVEIKSFEEVCKFLCER | not soluble
SLHELSLCQSAVEIIQRQAEQHDVKRVTAVWLEIGALSCVEESAVRFSFEIVCHGTVAQGCDLHIVYKPAQAWCWDCSQVVEVHQHDAQCPLCHGERLRVDTGDSLIVKSIEVE | soluble
GPGSMHDLPEGFEFMEHKVVNKDIHAPHENLETLRLTLTRQDEFLLREEPVKCVTVTGTNGEYGIYPGHAYKIVQLNPSPLTVEYTDGTTKKYFVSGGFAHINNEGSCDVNTVECTLLDDLDLAIAEKELAAQQAALGSAKDDKAKSVVEIRISVIEAVIAALKHH | soluble
MGSDKIHHHHHHMINAEPIISKMKNQKINYDKVLKKLIGQWEREAIRPKILLHSCCAPCSTYTLEFLTQYADIAIYFANSNIHPKNEYLRRAKVQEQFVEDFNRKTGANVKYIEAPYEPHKFVKMVKDKELADEKEGGLRCTACFEMRLDIVAKAAVEHGYDYFGSAITLSPKKNAQLINELGMDVQKIYDVNYLPSDFKKSKGYERSIEMCNDYNIFRQCYCGCVFAAMQQGIDFKTVNKEAKAFLEQYPD | not soluble
MGHHHHHHSHMHPDCGFLLNKDVGNIAKYDIRVKNLKSRLRGGKMRYQEEEARLASFRNWPFYVQGISPCVLSEAGFVFTGKQDTVQCFSCGGCLGNWEEGDDPWKEHAKWFPKCEFLRSKKSSEEITQYIQSYKGFVDITGEH | soluble
MNPISRVAIIGECMVELKKHDGVLQQGFGGDTLNTAVYLSRLTKQHGVETSYVTGLGHDPFSREMLTAWREEGINTDMVYLSEDKLPGIYAIETAEDGERSFFYWRNDAAAKYWLRERALLSLVKDLCQHQMIYLSGISLAIISDDCRQMLIELLTMCRKEGVKIAFDNNFRPKLWPNIEQARDFYSKILSVTDMAFLTFDDEVMLWGDKHE | not soluble
MGHHHHHHSHMLFEEAFVHLKPQVCLPLWISWAEWSEGAKSQEDTEAVFKKALLAVIGADSVTLKNKYLDWAYRSGGYKKARAVFKSLQESRPFSVDFFRKMIQFEKEQESCNMANIREYYERALREFGSADSDLWMDYMKEELNHPLGRPENCGQIYWRAMKMLQGESAEAFVAKHAMHQTGHL | not soluble
MGSDKIHHHHHHMENKPFIFGVATSGDNFTDREKETERLLLNFQHGVNTVLISPRRWGKTSLVQKACHLAQSDKLKVVYLDIFSCRSDRDFYDAFAAAILKQTSSKLDEWLENTKLFLSRISPKISIGTDPMTDFSISLEMNPQSNDVDEILQLPEKIAQKKGYNIVVCIDEFQQIAEFKDSKTFQKRLRSVWQLQKSVSYCLFGSKKHLMNELFEKKSLPFYKFGDAIYLPKIGTCDWINYICGRFEATGKQISKELAEKICQRVDNHSSYVQQLAWLVWIHTDKVATEQNFEEAYQDIIDQNTPLFEKQTESLTTYQMNFLRAILDGVHSEFTTQEILQKYKLGSSANVSIVKRALVKKELIEIEKRKVIIPDPVMKVWLKKELGGV | not soluble
MGSDKIHHHHHHMVYVGTSGFSFEDWKGVVYPEHLKPSQFLKYYWAVLGFRIVELNFTYYTQPSWRSFVQMLRKTPPDFYFTVKTPGSVTHVLWKEGKDPKEDMENFTRQIEPLIEEQRLKMTLAQFPFSFKFSRKNVEYLEKLRESYPYELAVEFRHYSWDREETYEFLRNHGITFVVVDEPKLPGLFPYRPITTTDYAYFRFHGRNERWFEAEGEERYDYLYSEEELKTLFEDVVELSRRVKETYVFFNNCYKGQAAINALQFKKMLEERV | soluble
ALENLQVEASCSVCLEYLKEPVIIECGHNFCKACITRWWEDLERDFPCPVC | soluble
MAQEIERKFLVSGDFKSFAFAQSRIMQGYICSARGRTVRVRIRDDKGYLTIKGASNESGTSRYEWEKELPLSEAEELMKLCEPGMIDKTRYLVRSGNHIFEVDEFYGENEGLIVAEVELGTEDEAFVKPGFIGEEVTGDVRYYNSHLMKKPYKMW | not soluble
MAKYEEAFKRQVVQEYLRGAVGTAGLSQKYGIGRSVIRRWINAWQRHGKSGLRKKHEAYSAEFKLTVLQRMWRDELSYQQVSAVFDLREAGGVSRWDRQYHEGGFDALQPRRKGGAPIMSQSKQDPQPAAQPAQDERSREDLLKENECLRAEVAYLKKLDALLRAKQQQAPKKKRKSLEHHHHHH | not soluble
MSLSGDLVSLKVVVFDIGNVLLRWDPRLLYRKIFSEENQMEWFLSQVCSEAFNRKLDGGAPFAAAIEALVAQFPDFSKEIRAYDERWLETTSGPIPETFAILEELVAEGVPLYAITNFSYEKFEVARCAFELFDRFDGIVVSGAEGVVKPEAPIYRLLLDRYGLDASDCLFIDDSAANVDGARAVGMQGYHYRDPISLRWKLTECGLLCRKSDLNDKGQVLEKREGHHHHHH | soluble
MSLNVFDKSGQSSGYKLSSTIGKNNTDVNKNDNNSAIYSESAVIVFGYPEYLSNQVITHFSHFGNILEDFEILRSSTGINNNTFRLHANLNALQEGSMSTKLPIFTGEGWVKITYDSPTSALRALKENGTVFTGHLIGCIPYSKSAVEQLALISVDKSDDIGSIDLGQINKSVNEDSRNKGSNGKVYPSLGSVDHIEPINGRQKEANMKSFGTPIINNNQQYLDHSIMAHPRHKLDIQDGKSLFVHNSSHHKTQFLDNIEKKIKEKEANKNESGSWSGRLTNWVFGWDNEGHHHHHH | soluble
MGSDKIHHHHHHMSRSIVEVYASWMPIDTPLLVGHLTFAETSRGGVFSFTYDKHFLASNYRLQIDPLLALHSGELYNDSADKNFRAFLDSSPDRWGRILMQRRAAIECRKGIRASAKLTELDYLLGVHDSYRMGGIRFKTAASLDFLDNNTEFSAPPMTSLRELEQAAMNIERDDNIDSDDYYRWLKMLISPGSSLGGARPKACVTDSEGHLWIAKFPNQNDTFDVGAWEMVCYQLALAAGIDMFPSEIRKFSTEHHTFLTKRFDRVGGKRIHFSSAMTQLQYYDGEQSDGASYLEIAEFLSNNGAQTKADLAQLWRRIVFNIAVSNTDDHLRNHGFLLSDKGWKLSPAYDLNPIVGKHGLHLNITDTANELDYALAFEVIDFFRLSREDATRIYDDVMGAVKGWQTVASRLGISRNEQLTKQEAFNV | not soluble
MSLTEPDSKPKKGRAGRKKAEPVRPPEQFLELAELLDYVGQVIARGVPGGVWVRAEIASLTDRRHLYLDLVQAGEGGAGGVGEVAKCRATVWARERFALEAKFRGATSGATLSAGLKVLLFGTAEFHPQYGFSFNVLDISPEYTLGDAALRLEAMRAELVAEGSYGLNRLLPVPTDFARVAVIAPREAAGLGDFRREADPLEAAGLVEFHYLEATFQGREAGASLLRAVAAARELHQEKALDALFVIRGGGAVTDLAWLNDLELARALATFPAPVVTGLGHARDDTLPDEVACLRTDTPSKAAAYLVRTVVNAAAQAQEAARTIRAEAARVLVEAEAAAAWARDRALSSAVRRVDAAAAEVDALMRQALGLTPQRTLARGYALVRDAAGQPVTRAAGARAGEPLTLEWSDGSVEGHHHHHH | soluble
MGSDKIHHHHHHMIELCEVTKTYPIYHGHAQRTILDRINLRVGKGQKWGILGRNGAGKSTLIRLISGAERPNTGNIVRNMTVSWPLAFGGAFQGSLTGRDNTRLICRAYGVDFDKTITMVENFAELGSYLWEPVKSYSSGMSARLAFAISISVEFDCFLIDEALAVGDHRFLQKCNVELFENRGDRAMIIVSHQTNIIRTHCDHAAVLENGHLTVHESVDSAIAAYEAL | not soluble
MHAVHQLHQYRKSLSTTTYKSRGQRVIRCQLCQLAKPFCICEISPLKENVETTAGFLLLMYDTEVLKPSNTGKLIADLIPDTFAFLWSRTQENPDLLAVINDEKWFPLVVFPQEYADDERKVFTNNVICPEGKRPLFIMLDGSWREAKKMFRKSPYLDRFPMVSFDVKTAIQAVSGNCQSENNSQLSPVGQDSRYTVRKTELEHQFSTAEVAARVLDMHGETTNAHMLDLWFDVFNFQYQKGVCQRNKGNVNAIENYQSFLAKTYRLEHHHHHH | not soluble
MDQVEIRTHTALHVVKGAVRKVLGAKWTASTYVNSNHGRLTVKFERKPSDQEMDKVFELANEKVRKNLPIIIEVLPREEAERKYGDEIYDLFLISAEVRELSIVVIPDWSINACNKQHTKFTSEIGEIIKDYWRYRNSKQLLEISFDIKC | soluble
MGSDKIHHHHHHMKYMIGIDGGGTKTEAIAFDKDGNELVRATSGFGNILIDFEEALVHIMEAIDQCQKGVLNEHCVCICLGLAGVSGVNTNELTLRLKKKYGTPIEVFNDAMIAHAAVLKGKDGILTIGGTGTICLGKKGEVYEYSGGWGHILGDAGSGYWIGLQALKRMANQLDQGIRLCPLSLRIQDEFQLLTASHIKRLVYRSSKDKVAAITPFVIREARNGNDAAHEIMMQAGKELARITIDVYNKMQLDLLVSIAVSGSILRFVPEIYDEFKKCCEKSVGEVTFVLQSEPAVKGTYYLMKNMYFKK | not soluble
MGSDKIHHHHHHMRVNMYLSRQIQPLVSRLLKQFPAVLVTGARQVGKSTLLKHIAKDYAYLTFDDPLLLEQAKQEPRLFFLNHAGNVILDEVQYAQELFSLLKLEIDKQQKNGMFLLSGSQAFELMQNVSETLAGRIAILKLQGLSLREILNVEFYLPFIPSRDYLASREKMLKSPENIWQIIHKGDMPRLYQQETDWEIYYSSYVSTYIERDVRQLTNITNTTDFTRFMVALASRSGELLNYSNVAQEVGVSNETIKRWTAILQTSGIIYLLQPYSNNHLKRTIKTPKIYFLNTGLMAYLTKWLTPETISKGAKSGQFFESFVVSEIIKSFTNNGIEPPLYFYRNTNQKEIDLIIEYDRTIYPIEIKTTANPNKKMAKSFALLNSLGKESTIGLGVIINQYPNKHYLAENLVALPVRYL | not soluble
LQELSITNFAIIEHLDIAFEAGMTVLTGETGAGKSIIIDAVGLLAGGRGSAEFIRTGADKAVLQGMFILPADGVTAQLLDEAGIEHADNTVILQREITKSGRNTCRINGMLVNTTTLKQIGETIVDIHGQNEHQELMQPEKHLGLLDEFATA | not soluble
